Laboratory results as given in patent US20210198328A1, “MODULATED CAS-INHIBITORS” (Universität Heidelberg, priority 2017, published 2021).

Test system: dCas9-3xRFP
Experiment: Telomere labeling, automated image analysis
Assay type: cell-based, Streptococcus pyogenes
Conditions: U2OS, light or dark 20 h
Protocol: U2OS cells were seeded into 4-compartment CELLview cell culture dishes (Greiner Bio-One) at a density of 30,000 cells per compartment. The next day, cells were transfected with vectors encoding (i) a CMV promoter-driven dCas9-3xRFP-P2A-CASANOVA and a U6 promoter-driven telomere-targeting gRNA, (ii) a telomere-targeting gRNA and GFP transfection marker, and (iii) a CMV promoter-driven CASANOVA in a ratio of 20:6:3 using 362.5 ng total DNA and 1.5 μl JetPrime for transfection (per compartment).
In the positive control samples, vector i was replaced by a vector encoding dCas9-3xRFP (without the P2A-CASANOVA) and a U6 promoter-driven telomere-targeting RNA, and vector iii was replaced by an irrelevant DNA. […] SlowFade™ Diamond Antifade Mountant with DAPI (Invitrogen) was added and imaging was performed using the aforementioned microscopy setup and the following excitation/detection settings: 405 nm (1% laser powerV410-490 nm for DAPI, 488 nm (2% laser power)/493-578 nm for GFP, or 552 nm (1% laser power)/578-789 nm for RFP. RFP fluorescent spots (i.e., labeled telomeres) were then detected and quantified using a fully automated image analysis pipeline as follows. The ImageJ2 (beta) Integration in KNIME Version 3.5.2 (KNIME AG) was used to create an automated image processing and analysis pipeline employed for quantification of labeled telomeres. […]

B1: AcrIIA4: anti-CRISPR polypeptide of a Listeria monocytogenes prophage, SEQ ID NO: 1 (protein)
chain: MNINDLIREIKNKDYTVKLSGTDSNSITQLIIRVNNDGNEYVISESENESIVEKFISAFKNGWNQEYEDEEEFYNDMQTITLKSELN
modifications: Listeria monocytogenes
In the case of B1, the “telomere labeling, light-independent” value is reported as “weak”.
